T1: DFNB31_2, Q9P202
T1 sequence (Q9P202 274-371, limits assumed, looked up): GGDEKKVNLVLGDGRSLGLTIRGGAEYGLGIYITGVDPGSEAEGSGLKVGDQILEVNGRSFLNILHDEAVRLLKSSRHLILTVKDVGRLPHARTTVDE

T2: DFNB31_3, Q9P202
T2 sequence (Q9P202 811-907, limits assumed, looked up): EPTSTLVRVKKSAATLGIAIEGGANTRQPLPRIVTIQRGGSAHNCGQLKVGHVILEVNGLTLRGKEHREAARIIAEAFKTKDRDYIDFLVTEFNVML

T3: DLG3_3, Q92796
T3 sequence (Q92796 374-475, limits assumed, looked up): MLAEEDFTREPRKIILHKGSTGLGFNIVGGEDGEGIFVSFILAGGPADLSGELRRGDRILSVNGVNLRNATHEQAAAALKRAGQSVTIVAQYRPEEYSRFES

T4: GRIP1_4, Q9Y3R0
T4 sequence (Q9Y3R0 467-571, limits assumed, looked up): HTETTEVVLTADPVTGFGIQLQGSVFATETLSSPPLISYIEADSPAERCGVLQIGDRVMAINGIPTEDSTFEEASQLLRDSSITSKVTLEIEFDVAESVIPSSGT

T5: GRIP1_5, Q9Y3R0
T5 sequence (Q9Y3R0 568-668, limits assumed, looked up): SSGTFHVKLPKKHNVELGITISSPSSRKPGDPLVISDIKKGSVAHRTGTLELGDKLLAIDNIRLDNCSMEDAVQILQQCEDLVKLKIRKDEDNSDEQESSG

T6: LIN7B, Q9HAP6
T6 sequence (Q9HAP6 88-185, limits assumed, looked up): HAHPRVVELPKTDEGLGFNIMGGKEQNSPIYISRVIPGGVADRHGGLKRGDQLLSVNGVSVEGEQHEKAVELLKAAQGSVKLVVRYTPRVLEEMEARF

T7: LRRC7, Q96NW7
T7 sequence (Q96NW7 1440-1537, limits assumed, looked up): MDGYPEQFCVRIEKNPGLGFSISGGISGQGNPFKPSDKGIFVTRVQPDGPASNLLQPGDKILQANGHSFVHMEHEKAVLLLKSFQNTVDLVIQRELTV

T8: MPDZ_12, O75970
T8 sequence (O75970 1857-1958, limits assumed, looked up): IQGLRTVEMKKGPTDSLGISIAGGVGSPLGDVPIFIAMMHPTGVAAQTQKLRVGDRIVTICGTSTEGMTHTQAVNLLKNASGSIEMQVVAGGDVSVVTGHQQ

T9: MPP2, Q14168
T9 sequence (Q14168 180-250, limits assumed, looked up): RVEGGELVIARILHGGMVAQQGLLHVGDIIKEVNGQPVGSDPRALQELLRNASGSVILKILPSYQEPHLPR

T10: NHERF3_4, Q5T2W1
T10 sequence (Q5T2W1 373-468, limits assumed, looked up): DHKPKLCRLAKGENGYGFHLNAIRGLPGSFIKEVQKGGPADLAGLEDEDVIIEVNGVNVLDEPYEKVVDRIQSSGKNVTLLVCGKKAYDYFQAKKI

T11: PARD3B_1, Q8TEW8
T11 sequence (Q8TEW8 196-299, limits assumed, looked up): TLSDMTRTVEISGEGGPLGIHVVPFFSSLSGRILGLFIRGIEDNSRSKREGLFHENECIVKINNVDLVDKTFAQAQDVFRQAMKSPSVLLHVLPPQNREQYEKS

T12: PDZD2_2, O15018
T12 sequence (O15018 329-429, limits assumed, looked up): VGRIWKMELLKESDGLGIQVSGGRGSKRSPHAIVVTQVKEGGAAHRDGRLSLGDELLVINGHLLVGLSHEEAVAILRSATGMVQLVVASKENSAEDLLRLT

T13: RAPGEF6, Q8TEU7
T13 sequence (Q8TEU7 525-625, limits assumed, looked up): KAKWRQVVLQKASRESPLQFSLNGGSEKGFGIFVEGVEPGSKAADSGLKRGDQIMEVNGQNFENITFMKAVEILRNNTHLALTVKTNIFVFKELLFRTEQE

B1: RSBN1, Q5VWQ0 (peptide)
chain: NLQEHSTTSV
B2: EPHB6, O15197 (peptide)
chain: HLRQQGSVEV
B3: ADGRA2, Q96PE1 (peptide)
chain: TGLWKSETTV
B4: PLEKHG7, Q6ZR37 (peptide)
chain: FTLPAESSEI
B5: GAB3, Q8WWW8 (peptide)
chain: EWTDERQSKV
B6: CLDN9, O95484 (peptide)
chain: ASGLDKRDYV

Target: T1, DFNB31_2, Q9P202
Assay: holdup assay
Design: key: below the threshold = too weak to quantify, mostly under pKd 3.1 to 4
Conditions: plain residues with an end cap or a label only (N-terminal biotin on a linker: ado-ado)

Binder	pKd
B1	below the threshold
B2	below the threshold
B3	below the threshold
B4	below the threshold
B5	3.75
B6	below the threshold

Target: T2, DFNB31_3, Q9P202
Assay: holdup assay
Design: key: below the threshold = too weak to quantify, mostly under pKd 3.1 to 4
Conditions: plain residues with an end cap or a label only (N-terminal biotin on a linker: ado-ado)

Binder	pKd
B1	below the threshold
B2	below the threshold
B3	3.88
B4	3.63
B5	below the threshold
B6	below the threshold

Target: DLG1_1, Q12959
Assay: holdup assay
Design: key: below the threshold = too weak to quantify, mostly under pKd 3.1 to 4
Conditions: plain residues with an end cap or a label only (N-terminal biotin on a linker: ado-ado)

Binder	pKd
B1	3.5
B2	below the threshold
B3	4.85
B4	below the threshold
B5	3.48
B6	below the threshold

Target: T3, DLG3_3, Q92796
Assay: holdup assay
Design: key: below the threshold = too weak to quantify, mostly under pKd 3.1 to 4
Conditions: plain residues with an end cap or a label only (N-terminal biotin on a linker: ado-ado)

Binder	pKd
B1	3.73
B2	below the threshold
B3	4.47
B4	below the threshold
B5	3.9
B6	below the threshold

Target: T4, GRIP1_4, Q9Y3R0
Assay: holdup assay
Design: key: below the threshold = too weak to quantify, mostly under pKd 3.1 to 4
Conditions: plain residues with an end cap or a label only (N-terminal biotin on a linker: ado-ado)

Binder	pKd
B1	below the threshold
B2	below the threshold
B3	below the threshold
B4	below the threshold
B5	below the threshold
B6	below the threshold

Target: T5, GRIP1_5, Q9Y3R0
Assay: holdup assay
Design: key: below the threshold = too weak to quantify, mostly under pKd 3.1 to 4
Conditions: plain residues with an end cap or a label only (N-terminal biotin on a linker: ado-ado)

Binder	pKd
B1	below the threshold
B2	below the threshold
B3	below the threshold
B4	below the threshold
B5	below the threshold
B6	below the threshold

Target: GRIP2_5, Q9C0E4
Assay: holdup assay
Design: key: below the threshold = too weak to quantify, mostly under pKd 3.1 to 4
Conditions: plain residues with an end cap or a label only (N-terminal biotin on a linker: ado-ado)

Sequence of GRIP2_5, Q9C0E4 (Q9C0E4 544-642): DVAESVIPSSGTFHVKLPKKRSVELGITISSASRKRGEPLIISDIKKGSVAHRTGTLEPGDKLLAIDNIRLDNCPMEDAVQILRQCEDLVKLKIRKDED

Binder	pKd
B1	below the threshold
B2	below the threshold
B3	below the threshold
B4	below the threshold
B5	below the threshold
B6	below the threshold

Target: Inadl_2, Q8NI35
Assay: holdup assay
Design: key: below the threshold = too weak to quantify, mostly under pKd 3.1 to 4
Conditions: plain residues with an end cap or a label only (N-terminal biotin on a linker: ado-ado)

Sequence of Inadl_2, Q8NI35 (Q8NI35 238-335): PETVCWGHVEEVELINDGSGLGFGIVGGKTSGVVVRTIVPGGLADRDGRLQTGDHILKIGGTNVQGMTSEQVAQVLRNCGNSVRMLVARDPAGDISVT

Binder	pKd
B1	below the threshold
B2	below the threshold
B3	below the threshold
B4	below the threshold
B5	below the threshold
B6	below the threshold

Target: T6, LIN7B, Q9HAP6
Assay: holdup assay
Design: key: below the threshold = too weak to quantify, mostly under pKd 3.1 to 4
Conditions: plain residues with an end cap or a label only (N-terminal biotin on a linker: ado-ado)

Binder	pKd
B1	below the threshold
B2	below the threshold
B3	3.51
B4	3.61
B5	below the threshold
B6	below the threshold

Target: LNX1_3, Q8TBB1
Assay: holdup assay
Design: key: below the threshold = too weak to quantify, mostly under pKd 3.1 to 4
Conditions: plain residues with an end cap or a label only (N-terminal biotin on a linker: ado-ado)

Sequence of LNX1_3, Q8TBB1 (Q8TBB1 500-596): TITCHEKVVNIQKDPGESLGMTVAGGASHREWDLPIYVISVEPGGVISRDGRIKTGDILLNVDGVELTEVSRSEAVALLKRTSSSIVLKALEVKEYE

Binder	pKd
B1	below the threshold
B2	below the threshold
B3	below the threshold
B4	below the threshold
B5	below the threshold
B6	below the threshold

Target: T7, LRRC7, Q96NW7
Assay: holdup assay
Design: key: below the threshold = too weak to quantify, mostly under pKd 3.1 to 4
Conditions: plain residues with an end cap or a label only (N-terminal biotin on a linker: ado-ado)

Binder	pKd
B1	below the threshold
B2	below the threshold
B3	3.56
B4	below the threshold
B5	below the threshold
B6	below the threshold

Target: MAST2, Q6P0Q8
Assay: holdup assay
Design: key: below the threshold = too weak to quantify, mostly under pKd 3.1 to 4
Conditions: plain residues with an end cap or a label only (N-terminal biotin on a linker: ado-ado)

Sequence of MAST2, Q6P0Q8 (Q6P0Q8 1099-1202): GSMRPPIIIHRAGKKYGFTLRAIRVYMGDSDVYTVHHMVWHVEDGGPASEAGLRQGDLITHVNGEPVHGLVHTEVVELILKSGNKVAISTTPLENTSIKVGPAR

Binder	pKd
B1	5.61
B2	4.01
B3	5.23
B4	5.6
B5	4.8
B6	3.5

Target: T8, MPDZ_12, O75970
Assay: holdup assay
Design: key: below the threshold = too weak to quantify, mostly under pKd 3.1 to 4
Conditions: plain residues with an end cap or a label only (N-terminal biotin on a linker: ado-ado)

Binder	pKd
B1	below the threshold
B2	below the threshold
B3	below the threshold
B4	below the threshold
B5	below the threshold
B6	below the threshold

Target: T9, MPP2, Q14168
Assay: holdup assay
Design: key: below the threshold = too weak to quantify, mostly under pKd 3.1 to 4
Conditions: plain residues with an end cap or a label only (N-terminal biotin on a linker: ado-ado)

Binder	pKd
B1	below the threshold
B2	below the threshold
B3	below the threshold
B4	below the threshold
B5	below the threshold
B6	below the threshold

Target: NHERF2_2, Q15599
Assay: holdup assay
Design: key: below the threshold = too weak to quantify, mostly under pKd 3.1 to 4
Conditions: plain residues with an end cap or a label only (N-terminal biotin on a linker: ado-ado)

Sequence of NHERF2_2, Q15599 (Q15599 142-238): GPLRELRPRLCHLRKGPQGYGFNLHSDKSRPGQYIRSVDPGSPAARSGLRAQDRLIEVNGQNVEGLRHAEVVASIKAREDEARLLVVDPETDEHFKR

Binder	pKd
B1	3.59
B2	below the threshold
B3	below the threshold
B4	below the threshold
B5	3.8
B6	below the threshold

Target: T10, NHERF3_4, Q5T2W1
Assay: holdup assay
Design: key: below the threshold = too weak to quantify, mostly under pKd 3.1 to 4
Conditions: plain residues with an end cap or a label only (N-terminal biotin on a linker: ado-ado)

Binder	pKd
B1	below the threshold
B2	below the threshold
B3	below the threshold
B4	below the threshold
B5	below the threshold
B6	below the threshold

Target: T11, PARD3B_1, Q8TEW8
Assay: holdup assay
Design: key: below the threshold = too weak to quantify, mostly under pKd 3.1 to 4
Conditions: plain residues with an end cap or a label only (N-terminal biotin on a linker: ado-ado)

Binder	pKd
B1	below the threshold
B2	3.69
B3	below the threshold
B4	below the threshold
B5	below the threshold
B6	below the threshold

Target: T12, PDZD2_2, O15018
Assay: holdup assay
Design: key: below the threshold = too weak to quantify, mostly under pKd 3.1 to 4
Conditions: plain residues with an end cap or a label only (N-terminal biotin on a linker: ado-ado)

Binder	pKd
B1	4.52
B2	below the threshold
B3	3.81
B4	5.12
B5	5.23
B6	5.04

Target: PDZRN4_1, Q6ZMN7
Assay: holdup assay
Design: key: below the threshold = too weak to quantify, mostly under pKd 3.1 to 4
Conditions: plain residues with an end cap or a label only (N-terminal biotin on a linker: ado-ado)

Sequence of PDZRN4_1, Q6ZMN7 (Q6ZMN7 213-318): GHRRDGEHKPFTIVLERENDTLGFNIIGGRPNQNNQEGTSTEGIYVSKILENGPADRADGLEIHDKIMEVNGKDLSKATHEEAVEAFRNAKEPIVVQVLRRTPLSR

Binder	pKd
B1	below the threshold
B2	below the threshold
B3	4.24
B4	below the threshold
B5	3.86
B6	below the threshold

Target: T13, RAPGEF6, Q8TEU7
Assay: holdup assay
Design: key: below the threshold = too weak to quantify, mostly under pKd 3.1 to 4
Conditions: plain residues with an end cap or a label only (N-terminal biotin on a linker: ado-ado)

Binder	pKd
B1	below the threshold
B2	below the threshold
B3	below the threshold
B4	below the threshold
B5	below the threshold
B6	below the threshold

Target: SCRIB_1, Q14160
Assay: holdup assay
Design: key: below the threshold = too weak to quantify, mostly under pKd 3.1 to 4
Conditions: plain residues with an end cap or a label only (N-terminal biotin on a linker: ado-ado)

Sequence of SCRIB_1, Q14160 (Q14160 718-814): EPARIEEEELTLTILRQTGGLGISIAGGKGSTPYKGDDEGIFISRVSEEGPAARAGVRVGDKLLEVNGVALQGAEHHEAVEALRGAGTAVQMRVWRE

Binder	pKd
B1	3.58
B2	below the threshold
B3	4.34
B4	below the threshold
B5	below the threshold
B6	below the threshold

Target: SCRIB_3, Q14160
Assay: holdup assay
Design: key: below the threshold = too weak to quantify, mostly under pKd 3.1 to 4
Conditions: plain residues with an end cap or a label only (N-terminal biotin on a linker: ado-ado)

Sequence of SCRIB_3, Q14160 (Q14160 999-1103): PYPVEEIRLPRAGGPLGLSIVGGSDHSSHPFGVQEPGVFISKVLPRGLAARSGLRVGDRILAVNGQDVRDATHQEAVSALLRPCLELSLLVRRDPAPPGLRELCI

Binder	pKd
B1	3.63
B2	below the threshold
B3	4.4
B4	3.86
B5	below the threshold
B6	below the threshold

Target: SNX27, Q96L92
Assay: holdup assay
Design: key: below the threshold = too weak to quantify, mostly under pKd 3.1 to 4
Conditions: plain residues with an end cap or a label only (N-terminal biotin on a linker: ado-ado)

Binder	pKd
B1	5.48
B2	3.76
B3	5.4
B4	below the threshold
B5	4.72
B6	3.62

Target: TJP2_1, Q9UDY2
Assay: holdup assay
Design: key: below the threshold = too weak to quantify, mostly under pKd 3.1 to 4
Conditions: plain residues with an end cap or a label only (N-terminal biotin on a linker: ado-ado)

Sequence of TJP2_1, Q9UDY2 (Q9UDY2 24-128): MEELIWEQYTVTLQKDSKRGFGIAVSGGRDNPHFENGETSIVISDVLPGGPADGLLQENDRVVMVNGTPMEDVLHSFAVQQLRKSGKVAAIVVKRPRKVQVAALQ

Binder	pKd
B1	below the threshold
B2	below the threshold
B3	below the threshold
B4	below the threshold
B5	below the threshold
B6	below the threshold
